Laboratory results taken from article PMC9958085, “A novel mechanism underlying allosteric regulation of ADAMTS-13 revealed by hydrogen−deuterium exchange plus mass spectrometry” (Research and Practice in Thrombosis and Haemostasis, 2022).
Values belong to the binder of their own block, whether it stands above or below them.

How the values were obtained:
[1] = target: T1, ADAMTS-13 CUB domain fragment; experiment: SPR; CUB fragment immobilised on a CM5 chip through amine-coupling; N-terminal fragment perfused at 30 μl/min for 120 s, dissociation 300 s; KD from maximal RU as a function of concentration (0-1.0 μM), Prism 8.0; details: both partners purified
T1 chain: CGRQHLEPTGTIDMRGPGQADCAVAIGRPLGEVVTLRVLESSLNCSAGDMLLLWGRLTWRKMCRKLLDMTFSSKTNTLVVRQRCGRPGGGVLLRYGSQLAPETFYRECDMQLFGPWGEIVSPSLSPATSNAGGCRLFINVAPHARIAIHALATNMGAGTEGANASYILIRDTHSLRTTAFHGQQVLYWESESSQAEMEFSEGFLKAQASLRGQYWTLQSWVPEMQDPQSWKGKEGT

[2] = target: T2, N-terminal ADAMTS-13 fragment MDTCS (aa1-685) (UniProt Q76LX8 30-685); experiment: as above; details: both partners purified
T2 construct: signal peptide in the construct; ADAMTS-13, N-terminal fragment MDTCS (metalloprotease, disintegrin-like domain, first TSP1 repeat, cysteine-rich and spacer domain), aa1-685; The signal peptide and propeptide are probably removed on secretion (surmise); also called ADAMTS-13 variant truncated after spacer domain; source: Drosophila (S2) cell line, purified
T2 sequence (looked up): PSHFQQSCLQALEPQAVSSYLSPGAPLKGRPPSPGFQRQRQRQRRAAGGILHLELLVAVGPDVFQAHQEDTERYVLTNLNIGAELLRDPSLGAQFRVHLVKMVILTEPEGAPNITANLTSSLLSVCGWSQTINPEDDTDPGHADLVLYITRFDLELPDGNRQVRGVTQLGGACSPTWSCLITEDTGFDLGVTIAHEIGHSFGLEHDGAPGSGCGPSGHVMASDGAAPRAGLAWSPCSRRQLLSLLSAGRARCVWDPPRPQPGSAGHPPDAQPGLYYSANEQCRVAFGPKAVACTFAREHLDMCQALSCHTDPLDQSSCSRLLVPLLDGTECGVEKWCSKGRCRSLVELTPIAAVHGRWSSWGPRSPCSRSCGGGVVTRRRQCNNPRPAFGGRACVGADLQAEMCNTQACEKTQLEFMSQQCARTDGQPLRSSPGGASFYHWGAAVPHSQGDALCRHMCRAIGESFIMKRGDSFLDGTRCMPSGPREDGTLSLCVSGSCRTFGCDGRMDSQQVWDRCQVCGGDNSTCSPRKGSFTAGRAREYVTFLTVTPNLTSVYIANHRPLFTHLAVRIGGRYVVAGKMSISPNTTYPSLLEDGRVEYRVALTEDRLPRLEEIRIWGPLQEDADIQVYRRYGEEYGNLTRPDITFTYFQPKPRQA

Kd [1]: 460 nM
B1: ADAMTS-13 construct consisting of a disintegrin, the first thrombospondin type 1 repeat, a cysteine-rich and a spacer domain (DTCS) (domain or fragment)
chain: RPQPGSAGHPPDAQPGLYYSANEQCRVAFGPKAVACTFAREHLDMCQALSCHTDPLDQSSCSRLLVPLLDGTECGVEKWCSKGRCRSLVELTPIAAVHGRWSSWGPRSPCSRSCGGGVVTRRRQCNNPRPAFGGRACVGADLQAEMCNTQACEKTQLEFMSQQCARTDGQPLRSSPGGASFYHWGAAVPHSQGDALCRHMCRAIGESFIMKRGDSFLDGTRCMPSGPREDGTLSLCVSGSCRTFGCDGRMDSQQVWDRCQVCGGDNSTCSPRKGSFTAGRAREYVTFLTVTPNLTSVYIANHRPLFTHLAVRIGGRYVVAGKMSISPNTTYPSLLEDGRVEYRVALTEDRLPRLEEIRIWGPLQEDADIQVYRRYGEEYGNLTRPDITFTYFQPKPRQA
modifications: disintegrin start by convention, end 685 from printed MDTCS limit; HEK-293 expressed (likely glycosylated) / CUB1+CUB2 taken from the conventional CUB1 start to the C-terminus; HEK-293 expressed …

Kd [2]: 330 nM
B2: ADAMTS-13 CUB domain fragment (domain or fragment)
chain: T1 chain
modifications: CUB1+CUB2 taken from the conventional CUB1 start to the C-terminus; HEK-293 expressed (likely N-glycosylated); amine-coupled to CM5 chip
